The source of these data is the supplement of paper PMC9170038.

The test system of this data set is K4 kissing-loop RNA reporter. In words: apparent KD of K4 kissing-loop reporter; higher = weaker reporter binding. The settings on record: Eterna round: R107. As to the method:
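RNA-MaP round R107: designed RNA switches with theophylline, tryptophan, arginine or FMN aptamers are transcribed on-chip within common flanks. They are titrated with a labelled K4 kissing-loop RNA reporter in RNA-MaP buffer (100 mM Tris pH 7.5, 80 mM KCl, 4 mM MgCl2), without ligand or with the indicated ligand. Median apparent KD per design.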

[1] abbreviates: input ligand: theophylline 20 uM.
[2] abbreviates: input ligand: tryptophan 2.4 mM.
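Also: bound reporter read as fluorescence of individual clusters on recovered sequencing chips by microscopy, with normalized cluster intensities fitted with a binding model.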

Take “AAGCAGUCACUCGACGCCAUCGAAGAUGGGCGAGGACCGGUACGGCCGCCACUCGGAGUGAUGUUCCGAAGACUGCAAAAUAAAA [MatMod 6 - Jieux - Exclusion - Tryptophan A]”: the “apparent KD of K4 kissing-loop reporter” value amounted to 356 nM (input ligand: FMN 200 uM); 317 nM (input ligand: arginine 13.2 mM); 384 nM (input ligand: none); 329 nM under setting [1]; 480 nM under setting [2].

As to “GCACUACAAUAAGGAUAUCAUAAAAUGGAGAGCGAGUGAUGUUCGCAGAGACACCUAUUUUUCCUAUGAGAAGGUAUUAACGCCG [theeternabot_sameState_KL_FMN_B_40]”, the “apparent KD of K4 kissing-loop reporter” value (input ligand: FMN 200 uM) stood at 97.8 nM; the “apparent KD of K4 kissing-loop reporter” value (input ligand: arginine 13.2 mM) was found to be 99 nM; the “apparent KD of K4 kissing-loop reporter” value (input ligand: none) is 120 nM; the “apparent KD of K4 kissing-loop reporter” value under setting [1] was determined as 161 nM; the “apparent KD of K4 kissing-loop reporter” value under setting [2] was 93.2 nM.

With “UCUGGAGUAUAUGAUACCAGCAGUGAGAGACAGGAAGUAUAGUGAUGUUAUAUGAGAGAAUGCCCUUGGCAGCGUGUGCGGUGGC [SSTheophylB.Q]”, the “apparent KD of K4 kissing-loop reporter” value was determined as 118 nM (input ligand: FMN 200 uM); 77.8 nM (input ligand: arginine 13.2 mM); 61.6 nM (input ligand: none); 81.4 nM under setting [1]; 58.3 nM under setting [2].

For the sequence “GAUGAUCGCGCGGCCGCCACUGGUCAGUGAUGUUGACAUUAAUGCGCCGAGUAGUAACGGCGCAACAGGACCGGGCGCGAUGUAG [#11 K4 Tryptophan B Same State]”, the “apparent KD of K4 kissing-loop reporter” value runs as follows: (input ligand: FMN 200 uM) 165 nM; (input ligand: arginine 13.2 mM) 160 nM; (input ligand: none) 143 nM; under setting [1], 185 nM; under setting [2], 171 nM.

For the sequence “GAGGUACAGGCGGCCGCCACUAGUGAUGUUAGUGAUGUUAGAUAAAGUAUAUAUCGGCGUGUAGAUAGGACCGGGCCUGAUGGAG [ssrykmullin]”, the “apparent KD of K4 kissing-loop reporter” value (input ligand: FMN 200 uM) is 49 nM; the “apparent KD of K4 kissing-loop reporter” value (input ligand: arginine 13.2 mM) came to 33.6 nM; the “apparent KD of K4 kissing-loop reporter” value (input ligand: none) was 60 nM; the “apparent KD of K4 kissing-loop reporter” value under setting [1] is 42 nM; the “apparent KD of K4 kissing-loop reporter” value under setting [2] was 53.9 nM.

Consider “GCAGUGAUGUUGCAAAAUGUCUGUGGUAGUCGAGGACCGGUACGGCCGCCACUCGGUGAGAACCUGCUAAUACAUCGAUAAGUGA [IX]”, for which the “apparent KD of K4 kissing-loop reporter” value is, setting by setting: (input ligand: FMN 200 uM) 706 nM; (input ligand: arginine 13.2 mM) 580 nM; (input ligand: none) 627 nM; under setting [1], 810 nM; under setting [2], 666 nM.

In the case of “GCCGUAGAUUGAAGGAGCGCCGCGCAUGUCCCGCUUAGUGUAGUGAUGUUACAGUUUCAGCGGCAGGUAGGUCGCAAUCUACGGC”, the “apparent KD of K4 kissing-loop reporter” value by setting is: (input ligand: FMN 200 uM) 83.4 nM; (input ligand: arginine 13.2 mM) 83.3 nM; (input ligand: none) 81.3 nM; under setting [1], 77.2 nM; under setting [2], 69.5 nM.

As for “GCGCGUCAUGUCAGCGGUGACUACGUCGAUACCAGCAGGGAAACCUGCCCUUGGCAGCGACGCGCUGGAGUGAUGUUCCGACAGA [#2 Exclusion - Theophylline A Attempt #5 (HarryS)]”, the “apparent KD of K4 kissing-loop reporter” value reads like this: (input ligand: FMN 200 uM) 218 nM; (input ligand: arginine 13.2 mM) 247 nM; (input ligand: none) 192 nM; under setting [1], 309 nM; under setting [2], 176 nM.

For the sequence “ACGGCGCUGGAACCAGUAAUGGGAAGAAUGCGAGGACCGGUACGGCCGCCACUCGCUUCCAGUGAUGUUGGAAGUGAGCCAACAA [Geerzaedre]”, the “apparent KD of K4 kissing-loop reporter” value (input ligand: FMN 200 uM) amounted to 272 nM; the “apparent KD of K4 kissing-loop reporter” value (input ligand: arginine 13.2 mM) came to 275 nM; the “apparent KD of K4 kissing-loop reporter” value (input ligand: none) came out at 304 nM; the “apparent KD of K4 kissing-loop reporter” value under setting [1] turned out to be 277 nM; the “apparent KD of K4 kissing-loop reporter” value under setting [2] was 181 nM.

Take “AAAUUUAUAUUAGAUACCAGCAUUUUGAAUGUUUAUUAUGACAAGAGUGAUGUUCUUGUAUGCCCUUGGCAGCUGGUAUGGGUUU [KL-XTheo-B24]”: the “apparent KD of K4 kissing-loop reporter” value reads like this: (input ligand: FMN 200 uM) 123 nM; (input ligand: arginine 13.2 mM) 115 nM; (input ligand: none) 136 nM; under setting [1], 120 nM; under setting [2], 125 nM.

Take “CUCGAGUGAUGUUCGAUUAUUUAUACAGAUACCAGUGAAUUUUAACACCCUUGGCAGCUGGUUGUAUCAUUUUUUUUUACUAAAG [JR_ExcTheophyA_Sub008]”: the “apparent KD of K4 kissing-loop reporter” value runs as follows: (input ligand: FMN 200 uM) 140 nM; (input ligand: arginine 13.2 mM) 166 nM; (input ligand: none) 179 nM; under setting [1], 225 nM; under setting [2], 133 nM.

“GCAUCCUAUGCAGGAUAUUAGCAUUUGAGUGAUGUUCAGACUAGCGAAAGCUAGUCAAUUGCUGGUUAAGAAGGGCAUAGGAUGC”: the “apparent KD of K4 kissing-loop reporter” value was 891 nM (input ligand: FMN 200 uM); 750 nM (input ligand: arginine 13.2 mM); 971 nM (input ligand: none); 902 nM under setting [1]; 689 nM under setting [2].

Take “UAAUCACUCGAACUUGCAACUCGAGUGGAACGAGGACCGGUACGGCCGCCACUCGAUAACUUGCAGUGAUGUUGCAAGUAAGAAU [(T)''-(K)'-(T)'-(T1)-(T2)-(K1)-(K2)_Design8]”: the “apparent KD of K4 kissing-loop reporter” value is, setting by setting: (input ligand: FMN 200 uM) 333 nM; (input ligand: arginine 13.2 mM) 341 nM; (input ligand: none) 411 nM; under setting [1], 411 nM; under setting [2], 219 nM.

Turning to “UGGAGUUGACGAAAAGUCAACUCCUGAGAAGGAGCGGACGAAAGUCCAGGUAGGUCGCUCACUACCAGUGAUGUUGGUACUUAAA [#OpenEnded 4]”, the “apparent KD of K4 kissing-loop reporter” value by setting is: (input ligand: FMN 200 uM) 152 nM; (input ligand: arginine 13.2 mM) 235 nM; (input ligand: none) 198 nM; under setting [1], 228 nM; under setting [2], 192 nM.

Consider “GCUCAGGAGUGAUGUUCCAAGUGGUGUUAACGAGGACCGGUACGGCCGCCACUCGAUACGGCCGGACCGUAGGAUAAACUAGAGC [Same State - Tryptophan A (Freestyle 11)]”, for which the “apparent KD of K4 kissing-loop reporter” value is 233 nM (input ligand: FMN 200 uM); 175 nM (input ligand: arginine 13.2 mM); 196 nM (input ligand: none); 280 nM under setting [1]; 206 nM under setting [2].

“CGCAAGCAGCCAGUGAUGUUGGCCGCCUUGCGAGGACCGGUACGGCCGCCACUCGAAGGCGGCUACUAGUAAACCGCCUAACGGA [KL-XTryp-A17]”: the “apparent KD of K4 kissing-loop reporter” value is 105 nM (input ligand: FMN 200 uM); 91.1 nM (input ligand: arginine 13.2 mM); 95.6 nM (input ligand: none); 81.2 nM under setting [1]; 184 nM under setting [2].
